From patent publication US20260015399A1 (Boehringer Ingelheim, published 2026)
*1 amine or outer side, *2 acyl side, *3 side chain or, on linkers, in order; H or OH if unused. Side-chain parts run from the residue outwards. The star is where a group is joined. C18 diacid = O=C(O)CCCCCCCCCCCCCCCCC(=O)*; γGlu = O=C(O)[C@H](CCC(=O)[*:2])N[*:1]; Isovaleryl = CC(C)CC(=O)*; Ahx = NCCCCCC(=O)O

T1: human NPY2 receptor (human, UniProt P49146 1-381)
T1 construct: whole, on cells; also called hNPY2-R; hNPY2R
T1 sequence (looked up): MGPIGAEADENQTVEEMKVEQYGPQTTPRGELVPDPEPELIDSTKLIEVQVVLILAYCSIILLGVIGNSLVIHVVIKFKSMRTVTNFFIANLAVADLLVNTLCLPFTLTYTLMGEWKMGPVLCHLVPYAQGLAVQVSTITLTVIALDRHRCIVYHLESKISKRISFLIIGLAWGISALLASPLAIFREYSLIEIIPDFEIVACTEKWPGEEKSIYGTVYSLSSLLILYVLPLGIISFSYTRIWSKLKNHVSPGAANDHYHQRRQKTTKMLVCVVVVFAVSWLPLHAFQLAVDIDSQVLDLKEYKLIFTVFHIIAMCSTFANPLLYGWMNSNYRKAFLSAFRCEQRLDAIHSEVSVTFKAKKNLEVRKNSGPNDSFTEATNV


Target: T1, human NPY2 receptor
Assay: RLB: displacement of 125I-PYY(1-36) from hNPY2R membranes

Row | Binder | Ki [nM]
1 | Isovaleryl-APEK([Ahx-γGlu-C18 diacid])PEEDAEPEETQRYYVSLRHYYNWLTRQRY-NH2 (SMILES CC(C)CC(=O)N[C@@H](C)C(=O)N1CCC[C@H]1C(=O)N[C@@H](CCC(=O)O)C(=O)N[C@@H](CCCCNC(=O)CCCCCNC(=O)CC[C@H](NC(=O)CCCCCCCCCCCCCCCCC(=O)O)C(=O)O)C(=O)N1CCC[C@H]1C(=O)N[C@@H](CCC(=O)O)C(=O)N[C@@H](CCC(=O)O)C(=O)N[C@@H](CC(=O)O)C(=O)N[C@@H](C)C(=O)N[C@@H](CCC(=O)O)C(=O)N1CCC[C@H]1C(=O)N[C@@H](CCC(=O)O)C(=O)N[C@@H](CCC(=O)O)C(=O)N[C@H](C(=O)N[C@@H](CCC(N)=O)C(=O)N[C@@H](CCCNC(=N)N)C(=O)N[C@@H](Cc1ccc(O)cc1)C(=O)N[C@@H](Cc1ccc(O)cc1)C(=O)N[C@H](C(=O)N[C@@H](CO)C(=O)N[C@@H](CC(C)C)C(=O)N[C@@H](CCCNC(=N)N)C(=O)N[C@@H](Cc1c[nH]cn1)C(=O)N[C@@H](Cc1ccc(O)cc1)C(=O)N[C@@H](Cc1ccc(O)cc1)C(=O)N[C@@H](CC(N)=O)C(=O)N[C@@H](Cc1c[nH]c2ccccc12)C(=O)N[C@@H](CC(C)C)C(=O)N[C@H](C(=O)N[C@@H](CCCNC(=N)N)C(=O)N[C@@H](CCC(N)=O)C(=O)N[C@@H](CCCNC(=N)N)C(=O)N[C@@H](Cc1ccc(O)cc1)C(N)=O)[C@@H](C)O)C(C)C)[C@@H](C)O) [Compound 107] | 5.13
2 | Isovaleryl-APEK([Ahx-γGlu-C18 diacid])PEEDLTPEELQRYYVSLRHYYNWLTRQRY-NH2 (SMILES CC(C)CC(=O)N[C@@H](C)C(=O)N1CCC[C@H]1C(=O)N[C@@H](CCC(=O)O)C(=O)N[C@@H](CCCCNC(=O)CCCCCNC(=O)CC[C@H](NC(=O)CCCCCCCCCCCCCCCCC(=O)O)C(=O)O)C(=O)N1CCC[C@H]1C(=O)N[C@@H](CCC(=O)O)C(=O)N[C@@H](CCC(=O)O)C(=O)N[C@@H](CC(=O)O)C(=O)N[C@@H](CC(C)C)C(=O)N[C@H](C(=O)N1CCC[C@H]1C(=O)N[C@@H](CCC(=O)O)C(=O)N[C@@H](CCC(=O)O)C(=O)N[C@@H](CC(C)C)C(=O)N[C@@H](CCC(N)=O)C(=O)N[C@@H](CCCNC(=N)N)C(=O)N[C@@H](Cc1ccc(O)cc1)C(=O)N[C@@H](Cc1ccc(O)cc1)C(=O)N[C@H](C(=O)N[C@@H](CO)C(=O)N[C@@H](CC(C)C)C(=O)N[C@@H](CCCNC(=N)N)C(=O)N[C@@H](Cc1c[nH]cn1)C(=O)N[C@@H](Cc1ccc(O)cc1)C(=O)N[C@@H](Cc1ccc(O)cc1)C(=O)N[C@@H](CC(N)=O)C(=O)N[C@@H](Cc1c[nH]c2ccccc12)C(=O)N[C@@H](CC(C)C)C(=O)N[C@H](C(=O)N[C@@H](CCCNC(=N)N)C(=O)N[C@@H](CCC(N)=O)C(=O)N[C@@H](CCCNC(=N)N)C(=O)N[C@@H](Cc1ccc(O)cc1)C(N)=O)[C@@H](C)O)C(C)C)[C@@H](C)O) [Compound 109] | 14
3 | Isovaleryl-APEK([Ahx-γGlu-C18 diacid])PEADASEEELQRYYVSLRHYYNWLTRQRY-NH2 (SMILES CC(C)CC(=O)N[C@@H](C)C(=O)N1CCC[C@H]1C(=O)N[C@@H](CCC(=O)O)C(=O)N[C@@H](CCCCNC(=O)CCCCCNC(=O)CC[C@H](NC(=O)CCCCCCCCCCCCCCCCC(=O)O)C(=O)O)C(=O)N1CCC[C@H]1C(=O)N[C@@H](CCC(=O)O)C(=O)N[C@@H](C)C(=O)N[C@@H](CC(=O)O)C(=O)N[C@@H](C)C(=O)N[C@@H](CO)C(=O)N[C@@H](CCC(=O)O)C(=O)N[C@@H](CCC(=O)O)C(=O)N[C@@H](CCC(=O)O)C(=O)N[C@@H](CC(C)C)C(=O)N[C@@H](CCC(N)=O)C(=O)N[C@@H](CCCNC(=N)N)C(=O)N[C@@H](Cc1ccc(O)cc1)C(=O)N[C@@H](Cc1ccc(O)cc1)C(=O)N[C@H](C(=O)N[C@@H](CO)C(=O)N[C@@H](CC(C)C)C(=O)N[C@@H](CCCNC(=N)N)C(=O)N[C@@H](Cc1c[nH]cn1)C(=O)N[C@@H](Cc1ccc(O)cc1)C(=O)N[C@@H](Cc1ccc(O)cc1)C(=O)N[C@@H](CC(N)=O)C(=O)N[C@@H](Cc1c[nH]c2ccccc12)C(=O)N[C@@H](CC(C)C)C(=O)N[C@H](C(=O)N[C@@H](CCCNC(=N)N)C(=O)N[C@@H](CCC(N)=O)C(=O)N[C@@H](CCCNC(=N)N)C(=O)N[C@@H](Cc1ccc(O)cc1)C(N)=O)[C@@H](C)O)C(C)C) [Compound 108] | 2.77

Further lines, results first:

Row | Ki [nM] | Binder
4 | 6.42 | Isovaleryl-APEK([Ahx-γGlu-C18 diacid])PEEDATPEELQRYYVELRHYYNWLTRQRY-NH2 (SMILES CC(C)CC(=O)N[C@@H](C)C(=O)N1CCC[C@H]1C(=O)N[C@@H](CCC(=O)O)C(=O)N[C@@H](CCCCNC(=O)CCCCCNC(=O)CC[C@H](NC(=O)CCCCCCCCCCCCCCCCC(=O)O)C(=O)O)C(=O)N1CCC[C@H]1C(=O)N[C@@H](CCC(=O)O)C(=O)N[C@@H](CCC(=O)O)C(=O)N[C@@H](CC(=O)O)C(=O)N[C@@H](C)C(=O)N[C@H](C(=O)N1CCC[C@H]1C(=O)N[C@@H](CCC(=O)O)C(=O)N[C@@H](CCC(=O)O)C(=O)N[C@@H](CC(C)C)C(=O)N[C@@H](CCC(N)=O)C(=O)N[C@@H](CCCNC(=N)N)C(=O)N[C@@H](Cc1ccc(O)cc1)C(=O)N[C@@H](Cc1ccc(O)cc1)C(=O)N[C@H](C(=O)N[C@@H](CCC(=O)O)C(=O)N[C@@H](CC(C)C)C(=O)N[C@@H](CCCNC(=N)N)C(=O)N[C@@H](Cc1c[nH]cn1)C(=O)N[C@@H](Cc1ccc(O)cc1)C(=O)N[C@@H](Cc1ccc(O)cc1)C(=O)N[C@@H](CC(N)=O)C(=O)N[C@@H](Cc1c[nH]c2ccccc12)C(=O)N[C@@H](CC(C)C)C(=O)N[C@H](C(=O)N[C@@H](CCCNC(=N)N)C(=O)N[C@@H](CCC(N)=O)C(=O)N[C@@H](CCCNC(=N)N)C(=O)N[C@@H](Cc1ccc(O)cc1)C(N)=O)[C@@H](C)O)C(C)C)[C@@H](C)O) [Compound 110]
5 | 4.28 | Isovaleryl-APEK([Ahx-γGlu-C18 diacid])PEEDAEPEEIQRYYVSLRHYYNWLTRQRY-NH2 (SMILES CC[C@H](C)[C@H](NC(=O)[C@H](CCC(=O)O)NC(=O)[C@H](CCC(=O)O)NC(=O)[C@@H]1CCCN1C(=O)[C@H](CCC(=O)O)NC(=O)[C@H](C)NC(=O)[C@H](CC(=O)O)NC(=O)[C@H](CCC(=O)O)NC(=O)[C@H](CCC(=O)O)NC(=O)[C@@H]1CCCN1C(=O)[C@H](CCCCNC(=O)CCCCCNC(=O)CC[C@H](NC(=O)CCCCCCCCCCCCCCCCC(=O)O)C(=O)O)NC(=O)[C@H](CCC(=O)O)NC(=O)[C@@H]1CCCN1C(=O)[C@H](C)NC(=O)CC(C)C)C(=O)N[C@@H](CCC(N)=O)C(=O)N[C@@H](CCCNC(=N)N)C(=O)N[C@@H](Cc1ccc(O)cc1)C(=O)N[C@@H](Cc1ccc(O)cc1)C(=O)N[C@H](C(=O)N[C@@H](CO)C(=O)N[C@@H](CC(C)C)C(=O)N[C@@H](CCCNC(=N)N)C(=O)N[C@@H](Cc1c[nH]cn1)C(=O)N[C@@H](Cc1ccc(O)cc1)C(=O)N[C@@H](Cc1ccc(O)cc1)C(=O)N[C@@H](CC(N)=O)C(=O)N[C@@H](Cc1c[nH]c2ccccc12)C(=O)N[C@@H](CC(C)C)C(=O)N[C@H](C(=O)N[C@@H](CCCNC(=N)N)C(=O)N[C@@H](CCC(N)=O)C(=O)N[C@@H](CCCNC(=N)N)C(=O)N[C@@H](Cc1ccc(O)cc1)C(N)=O)[C@@H](C)O)C(C)C) [Compound 112]
6 | 2.14 | Isovaleryl-APAK([Ahx-γGlu-C18 diacid])PEAAAEPEEIQRYYVSLRHYYNWLTRQRY-NH2 (SMILES CC[C@H](C)[C@H](NC(=O)[C@H](CCC(=O)O)NC(=O)[C@H](CCC(=O)O)NC(=O)[C@@H]1CCCN1C(=O)[C@H](CCC(=O)O)NC(=O)[C@H](C)NC(=O)[C@H](C)NC(=O)[C@H](C)NC(=O)[C@H](CCC(=O)O)NC(=O)[C@@H]1CCCN1C(=O)[C@H](CCCCNC(=O)CCCCCNC(=O)CC[C@H](NC(=O)CCCCCCCCCCCCCCCCC(=O)O)C(=O)O)NC(=O)[C@H](C)NC(=O)[C@@H]1CCCN1C(=O)[C@H](C)NC(=O)CC(C)C)C(=O)N[C@@H](CCC(N)=O)C(=O)N[C@@H](CCCNC(=N)N)C(=O)N[C@@H](Cc1ccc(O)cc1)C(=O)N[C@@H](Cc1ccc(O)cc1)C(=O)N[C@H](C(=O)N[C@@H](CO)C(=O)N[C@@H](CC(C)C)C(=O)N[C@@H](CCCNC(=N)N)C(=O)N[C@@H](Cc1c[nH]cn1)C(=O)N[C@@H](Cc1ccc(O)cc1)C(=O)N[C@@H](Cc1ccc(O)cc1)C(=O)N[C@@H](CC(N)=O)C(=O)N[C@@H](Cc1c[nH]c2ccccc12)C(=O)N[C@@H](CC(C)C)C(=O)N[C@H](C(=O)N[C@@H](CCCNC(=N)N)C(=O)N[C@@H](CCC(N)=O)C(=O)N[C@@H](CCCNC(=N)N)C(=O)N[C@@H](Cc1ccc(O)cc1)C(N)=O)[C@@H](C)O)C(C)C) [Compound 111]
